Test results taken from PMC4072508, “Genome-Wide Prediction and Validation of Peptides That Bind Human Prosurvival Bcl-2 Proteins” (PLoS Computational Biology, 2014).

T1: Mcl-1, Q07820
T1 chain: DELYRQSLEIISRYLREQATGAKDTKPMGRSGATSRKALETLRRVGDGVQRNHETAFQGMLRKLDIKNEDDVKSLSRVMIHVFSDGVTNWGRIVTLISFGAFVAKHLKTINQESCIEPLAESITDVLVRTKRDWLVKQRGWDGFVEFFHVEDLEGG


Molecular target: T1, Mcl-1, Q07820
Test: peptide SPOT array, c-Myc-tagged receptor at 1 uM or 100 nM, anti-c-Myc-Cy3

Binder	SPOT signal as a fraction of Bim BH3's signal on the same receptor and array
MKLRNLFTKFIRKFGFELVKRLLPEE [RRP12]	0.14
PESTKRSALCIFKIARKLLFLFRIKE [UBE3B]	0.1
RDHDEFIINLIRGLGGNLNMKSRLEF [DYNC2H1]	0.03
EDLQQVIASVLRNLSWRADVNSKKTL [APC]	0.07
QDTEQFVATVLQAASRDLDWEVRAQG [C7orf27]	0.02
TTLEMEFAKGLQKIAHNCRQSVMQEP [HMHA1]	0.02
DRFEGYCIDLLKELAHILGFSYEIRL [GRIK3]	0.02
AEIEMDYSRNLEKLAERFLAKTRSTK [SRGAP2]	0.08
AVLSPQSADNLKQVARSLFLLGKHKA [BBS4]	0.2
AASDFRTSVVLNHLAEKWFPGQRERA [LONRF1]	0.07
VLLLSSSVNSLRKAAHEALQDFQKYK [DNAH8]	0.19
DIARSTLAKIIEDLGVHFLLYVLKEL [UTP20]	0.02
RLKVMPFAGVLEHIGGIMEIQLEENP [SLITRK2]	0.02
PEVRKVLADVLQDIANDNISSADYTQ [ARSG]	0.01
DLDSNQAAMVLIRLSHLLSEKPEDKG [TBRG4]	0.02
CYRGQLAASVLRQISRELGPQEPTGS [FAM129C]	0.07
LGKRTSSVQALKRSARELIEGSRDDS [DST]	0.05
AEIETEYSRNLEKLAERFMAKTRSTK [SRGAP1]	0.11
TYEKPQVAEALQRAARIAISVIEFKP [RTDR1]	0.02
LFHLLEFCLLLNQFSRAVAAKWKDDV [RLN1]	0.02
GADHPDVAKQLNNLALLCQNQGKFED [KLC3]	0.01
EDLKENLAAGIKQIAEFLGFFLTGEQ [SULT6B1]	0.02
AFVGRLVSTLISKAGRELGENLDQIL [IPO9]	0.03
NPKNKTHACYLKELGEQFVVRANHQV [NWD1]	0.04
EGPEVICAQILQGCAKQALEKLEEKR [NCAPD2]	0.02
YGKVRKAASSIDQFSIRLGIFLRRYP [GOLGA5]	0.29
RDSFKHLIGGLDDVSNKAYEDAEAKA [PRKG1]	0.01

Binder	SPOT signal as a fraction of Bim BH3's signal on the same receptor and array
GFKTTVYVSHINDLSDFYVQLIEDEA [TDRD6]	0.02
VPKIASVVGILGHLASRHGDSIRREL [INTS5]	0.05
ATPPAASPSALKGVSQDLLERIRAKE [CDT1]	0.03
FVENASIAYALKNVSGKIWDEDNEKI [NXF3]	0.02
FGDEGAVIEVLHRGSADLNARNKRRQ [MIB1]	0.05
TSMETIGAKALEDFADNIKNDPDKEY [EXOC7]	0.01
IPGSAVCAFDLTQVAAVFEGRFREQK [SEMA6B]	0.02
DLVVSELATVIKKCAEKLSSYPRLRE [DNM2]	0.06
GKRMKQFPEVIKYLSRNVVHSVRREH [BAZ2A]	0.29
RNIASQTVARLKDVARRISSCLDFEQ [HERC2]	0.06
SGEFARICRDLSHILDAVVISCAKDG [PCNA]	0.01
DPLNDNIATLLHQSSDKFVSELWKDV [MYH9]	0.02
LLLPKGVVLKLKPVATRFPRKAWRQK [GON4L]	0.32
FVQVASAASALKDVSYKIYDDENQKI [NXF5]	0.02
QDKMLVAVKALKEASESARQDFQREA [NTRK1]	0.02
RFNLMQVGRLLQQLAMTGSEEGDPRT [GAPVD1]	0.04
AIVADRMVEILFHYADRALKKCPDQG [VPS8]	0.02
CVQSTKPSLMIQKAAIQALRKMEPKD [APOB]	0.09
FVQDASAASALKDVSYKIYDDENQKI [NXF2]	0.01
VPSGTSLARNLKRVAETWMDEFAEYI [GALNTL6]	0.02
YKSLLLLAYLIRNGSERVVTSAREHI [CLINT1]	0.05
TGVNGEISYSLFQASEEIGKTFKINP [PCDHB13]	0.01
GETDANVAKFLNRLSDYLFTLARYAA [MMAB]	0.02
KKDKARVSELLQGLSFSGDSDVEKDN [PGBD1]	0.01
EQWAREIGAQLRRMADDLNAQYERRR [BBC3]	0.76
EGEEFTVTCTIKDVSSSVYSTWKREN [KIT]	0.02
AYKTVEVVESIEKISTESIQTYEETA [BFSP1]	0.01
